Data on nine molecules can be found in US20220017616A1 (published 2022).

Residue numbers refer to the chain shown, from its start.

T1: human CD112R (N81D)
T1 chain: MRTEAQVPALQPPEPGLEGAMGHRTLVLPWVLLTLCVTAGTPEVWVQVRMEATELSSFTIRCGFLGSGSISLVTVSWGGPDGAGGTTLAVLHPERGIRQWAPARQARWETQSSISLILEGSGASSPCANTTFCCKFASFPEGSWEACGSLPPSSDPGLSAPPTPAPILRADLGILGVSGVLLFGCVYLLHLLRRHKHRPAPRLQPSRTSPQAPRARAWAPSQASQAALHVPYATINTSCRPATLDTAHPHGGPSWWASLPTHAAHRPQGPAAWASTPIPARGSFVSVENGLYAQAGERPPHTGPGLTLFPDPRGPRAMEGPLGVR

T2: human TIGIT (UniProt Q495A1 22-244)
T2 chain: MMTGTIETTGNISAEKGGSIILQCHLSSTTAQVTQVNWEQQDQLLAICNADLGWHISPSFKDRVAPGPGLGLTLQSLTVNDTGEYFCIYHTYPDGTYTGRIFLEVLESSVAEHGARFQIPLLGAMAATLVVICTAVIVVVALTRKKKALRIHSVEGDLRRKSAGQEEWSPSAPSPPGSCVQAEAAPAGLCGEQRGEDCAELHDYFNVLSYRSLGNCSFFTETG

B1: 43B7.002.015 (antibody, V domains shown)
VH: QVQLQESGPGLVKPSETLSLTCTVSGGSISSGGYYWSWIRQHPGKGLEWIGYIYYRGGTYYNPSLRSRVTMSVDTSKNQFSLRLSSVTAADTAVYYCARTIFGVIILDNWGQGTPVTVSS
VL: DIQMTQSPSSLSASVGDRVTITCRSSQSISSYLNWYQQKPGRAPKLLIYAASSLQSGVPSRFSGSGSGTDFTLTISSLQPEDFASYYCQQSYTTPPTFGGGTKVEIKR
B2: 66H9.009 (antibody, V domains shown)
VH: QVQLQESGPGLVKPSETLSLTCTVSGGSISSVYFYWNWIRQPPGKGLEWIGYIYYSGGTYYNPSLRSRVTISVDTSKNQFSLKLNSVTAADTAVYYCARGSIAAGGGYFYYNDMDVWGQGTTVTVSS
VL: EIVLTQSPDFQSVTPKEKVAITCRASQSIGSSLHWYQQKPDQSPKPLIKYVSQSFSGVPSRFSGSGSGTDFTLTINSLEAEDAATYYCHQSSSLPLTFGGGTKVEIKR
B3: 58A7.003.008 (antibody, V domains shown)
VH: QVQLQESGPGLVKPSETLSLTCTVSGGSISSGGYYWNWIRQPPGKGLEWIGYIYYSGSTFYNPSLKSRVTISVDTSKNQFSLKLSSVTAADTAVYYCARAPRYNWNYGWFDPWGQGTLVTVSS
VL: EIVLTQSPGTLSLSPGERATLSCRASQQVSSTYLAWYQQKPGQAPRLLFYGASSRATGIPDRFSRSGSGTDFTLTISRLEPEDFAVYYCQQYDVSPWTFGQGTKVEIKR
B4: 55G7.041 (antibody, V domains shown)
VH: EVQLVESGGGVVQPGGSLRLSCAASGFTFSSYGMHWVRQAPGKGLEWVALIWFDESNIYYADAVKGRFTISRDNAKNTLYLQMNSLRAEDTAVYFCARGYDLLTGYYNFDFWGQGTLVTVSS
VL: QAGLTQPPSVSKGLRQTATLTCTGNANNVGNRGAAWLQQHQGHPPKLLSYRNNNRPSGISERLSASRSGNTASLTITGLQPEDEADYYCSAWDSSLSAWVFGGGTKLTVLG
B5: 29E10 (antibody, V domains shown)
VH: EVQLVESGGGLVQPGGSLRLSCAASGFTFRNYDMHWVRQVPGKGLEWVSDIGNSGETYYLGSVKGRFTISRENAKNSLYLQMNSLRAGDTAVYYCVREEFGYGMDVWGQGTTVTVSS
VL: DIQMTQSPSSLSASVGDRVTITCRASQGIRNDLGWYQQKPGKAPKRLIYAASSLQSGVPSRFSGSGSGTEFTLTISSLQPEDFATYYCLQHNSYPLTFGGGTKVEIKR
B6: 1E1.016 (antibody, V domains shown)
VH: QVQLVQSGAEVKKPGASVKVSCKASGYTFTDYYIYWVRQAPGQGLEWMGWINPNAGGTNYAQKFQGRVTMTRDTSISTAYIELSRLRSDDTAVYYCAREDNFNGMDVWGQGTTVTVSS
VL: B5 VL with H91L, S93A
B7: 24F1.001 (antibody, V domains shown)
VH: EVQLVESGGGLVQPGGSLRLSCAASGFTFSRDDMHWVRQATGKGLEWVAGIDNAGETYYPGSVKGRFTISRENAKNSLYLQMNSLRAGDTAIYYCAREGQWPYGMDVWGQGTTVTVSS
VL: B5 VL with A50S, P59S, H91S
B8: 24F1 (antibody, V domains shown)
VH: B7 VH with E56D
VL: B5 VL with A50S, P59S, H91S
B9: human CD112R (receptor)
chain: TPEVWVQVRMEATELSSFTIRCGFLGSGSISLVTVSWGGPNGAGGTTLAVLHPERGIRQWAPARQARWETQSSISLILEGSGASSPCANTTFCCKFASFPEGSWEACGSLPPSSDPGLSAPPTPAPILRADLAGILGVSGVLLFGCVYLLHLLRRHKHRPAPRLQPSRTSPQAPRARAWAPSQASQAALHVPYATINTSCRPATLDTAHPHGGPSWWASLPTHAAHRPQGPAAWASTPIPARGSFVSVENGLYAQAGERPPHTGPGLTLFPDPRGPRAMEGPLGVR

The target in the first experiment is cynomolgus TIGIT. As to the kind of experiment: Biacore SPR.
Sequence of cynomolgus TIGIT (chain, as listed by the source): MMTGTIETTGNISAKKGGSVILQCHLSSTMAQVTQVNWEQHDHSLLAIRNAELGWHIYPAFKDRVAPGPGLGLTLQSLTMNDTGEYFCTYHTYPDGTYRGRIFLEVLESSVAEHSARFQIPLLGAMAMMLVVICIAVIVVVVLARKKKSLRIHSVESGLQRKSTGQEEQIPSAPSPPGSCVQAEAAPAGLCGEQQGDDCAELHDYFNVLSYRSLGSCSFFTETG
For B1, the affinity, expressed as Kd, was 13 nM.

As for B2, the Kd is 34.7 nM.

Take B3: the Kd was determined as 9.39 nM.

The molecule B4 yielded a Kd of 25 nM. Compared with the last molecule, the Kd is about 2.7-fold higher.

The target of the next experiment is T1, human CD112R (N81D). Description: Biacore SPR.
Take B5: the Kd amounted to 0.126 nM. In other words, the sub-nanomolar range.

In the case of B6, the Kd was determined as 0.25 nM.

B7 came in with a Kd of 0.0594 nM.

Take B8: binding was put at a Kd of 0.0506 nM. The Kd values of the last two molecules are within 1.5-fold of each other.

Another experiment has as its target T2, human TIGIT. As to the kind of experiment: Biacore SPR.
Take B1: the Kd stood at 0.0519 nM.

For B2, the Kd came out at 0.0523 nM. The Kd values of the last two molecules are within 1.5-fold of each other.

B3 returned a Kd of 0.283 nM. Against the preceding molecule, the Kd is about 5.4-fold higher.

In the case of B4, the Kd came out at 0.228 nM.

A further experiment has as its target 31B3.001. As to the kind of experiment: Biacore SPR.
For B9, the Kd amounted to 2.29 nM. This lies in the single-digit nanomolar range.
